{
  "source": "patent US20140087395A1",
  "molecular_target": "pig asialo-thyroglobulin (pig) (UniProt F1RRV3)",
  "sequence (F1RRV3 20-2692 limits assumed)": "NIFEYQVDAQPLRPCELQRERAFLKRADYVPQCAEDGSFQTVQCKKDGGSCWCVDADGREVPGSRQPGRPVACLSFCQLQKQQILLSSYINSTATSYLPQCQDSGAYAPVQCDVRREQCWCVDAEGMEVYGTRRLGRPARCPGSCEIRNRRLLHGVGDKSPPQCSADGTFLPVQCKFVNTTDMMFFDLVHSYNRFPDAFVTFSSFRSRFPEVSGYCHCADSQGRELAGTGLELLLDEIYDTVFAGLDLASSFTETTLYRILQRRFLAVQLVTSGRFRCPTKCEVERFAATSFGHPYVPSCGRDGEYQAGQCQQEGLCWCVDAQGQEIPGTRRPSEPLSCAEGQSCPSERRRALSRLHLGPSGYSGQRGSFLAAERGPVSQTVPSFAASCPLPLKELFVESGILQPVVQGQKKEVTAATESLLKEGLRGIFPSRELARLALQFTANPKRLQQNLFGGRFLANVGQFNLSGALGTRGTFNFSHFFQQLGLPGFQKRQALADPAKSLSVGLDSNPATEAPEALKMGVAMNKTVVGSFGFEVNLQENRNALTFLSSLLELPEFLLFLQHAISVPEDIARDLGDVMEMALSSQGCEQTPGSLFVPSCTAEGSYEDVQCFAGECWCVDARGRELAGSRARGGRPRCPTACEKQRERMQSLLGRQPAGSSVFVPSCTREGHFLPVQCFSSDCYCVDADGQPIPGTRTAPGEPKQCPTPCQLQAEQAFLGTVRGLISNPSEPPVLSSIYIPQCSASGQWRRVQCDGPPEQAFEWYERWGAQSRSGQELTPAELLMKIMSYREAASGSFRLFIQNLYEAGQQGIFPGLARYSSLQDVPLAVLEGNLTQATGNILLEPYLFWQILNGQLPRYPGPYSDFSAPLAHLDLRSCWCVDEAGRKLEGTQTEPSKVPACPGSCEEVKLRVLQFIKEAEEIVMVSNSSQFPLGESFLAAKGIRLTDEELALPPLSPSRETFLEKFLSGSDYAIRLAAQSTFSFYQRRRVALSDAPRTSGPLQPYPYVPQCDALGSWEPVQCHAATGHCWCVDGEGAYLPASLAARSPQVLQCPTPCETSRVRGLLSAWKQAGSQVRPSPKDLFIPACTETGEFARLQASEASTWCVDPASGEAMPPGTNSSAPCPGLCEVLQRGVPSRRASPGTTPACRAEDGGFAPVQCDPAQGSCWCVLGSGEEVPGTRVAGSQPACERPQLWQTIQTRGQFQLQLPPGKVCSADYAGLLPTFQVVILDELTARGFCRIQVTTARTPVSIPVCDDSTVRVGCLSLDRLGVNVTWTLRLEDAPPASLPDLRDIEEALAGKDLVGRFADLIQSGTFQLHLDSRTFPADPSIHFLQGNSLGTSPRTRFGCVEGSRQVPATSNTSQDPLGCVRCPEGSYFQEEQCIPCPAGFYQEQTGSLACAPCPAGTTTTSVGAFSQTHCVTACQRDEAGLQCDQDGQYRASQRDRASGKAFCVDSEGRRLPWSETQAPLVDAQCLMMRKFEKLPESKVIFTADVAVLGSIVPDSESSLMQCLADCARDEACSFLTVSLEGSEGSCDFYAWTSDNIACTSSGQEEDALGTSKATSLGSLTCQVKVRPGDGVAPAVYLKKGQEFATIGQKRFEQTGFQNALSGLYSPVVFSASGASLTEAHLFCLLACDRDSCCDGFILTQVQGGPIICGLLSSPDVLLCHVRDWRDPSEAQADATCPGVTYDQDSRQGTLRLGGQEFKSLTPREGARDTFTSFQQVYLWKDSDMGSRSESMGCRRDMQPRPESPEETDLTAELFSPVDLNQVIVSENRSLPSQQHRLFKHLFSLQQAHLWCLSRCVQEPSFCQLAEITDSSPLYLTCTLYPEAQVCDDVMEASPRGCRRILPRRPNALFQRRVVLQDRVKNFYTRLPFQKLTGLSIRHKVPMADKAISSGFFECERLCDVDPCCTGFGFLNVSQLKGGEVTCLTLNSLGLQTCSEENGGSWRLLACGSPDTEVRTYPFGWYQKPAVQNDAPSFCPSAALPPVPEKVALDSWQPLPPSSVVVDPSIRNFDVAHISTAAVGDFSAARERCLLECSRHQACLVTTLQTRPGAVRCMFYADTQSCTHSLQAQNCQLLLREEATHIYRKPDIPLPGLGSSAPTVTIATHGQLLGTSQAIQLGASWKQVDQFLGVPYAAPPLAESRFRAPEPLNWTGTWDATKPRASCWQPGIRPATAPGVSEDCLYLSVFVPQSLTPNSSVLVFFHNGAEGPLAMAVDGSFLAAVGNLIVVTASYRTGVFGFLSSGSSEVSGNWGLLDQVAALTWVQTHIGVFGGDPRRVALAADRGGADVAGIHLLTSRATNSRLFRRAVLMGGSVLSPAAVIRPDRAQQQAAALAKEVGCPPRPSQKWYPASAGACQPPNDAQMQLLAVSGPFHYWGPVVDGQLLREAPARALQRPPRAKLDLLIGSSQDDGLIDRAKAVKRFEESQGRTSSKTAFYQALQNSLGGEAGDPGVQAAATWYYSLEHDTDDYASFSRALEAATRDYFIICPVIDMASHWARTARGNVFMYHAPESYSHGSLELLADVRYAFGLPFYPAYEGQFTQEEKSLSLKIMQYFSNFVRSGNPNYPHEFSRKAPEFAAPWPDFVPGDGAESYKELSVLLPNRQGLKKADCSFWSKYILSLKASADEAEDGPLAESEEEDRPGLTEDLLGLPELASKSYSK",
  "test": "cell-based or functional assay",
  "data": [
    {"substance": "CBA (Codium barbatum agglutinin), purified from Codium barbatum", "values": [
      {"measurement": "inhibition of hemagglutination activity (trypsin-treated rabbit red blood cells)", "value": 31, "unit": "µg/mL"}
    ]}
  ]
}
